Three molecules from patent US20190300618A1 (Merck Sharp & Dohme, published 2019) can be followed below.

Assay in all cases: flow cytometry, CHO-K1; sub-column 1 of 2
Background: Flow cytometry measures light scatter and fluorescence of single cells or particles in a stream.

One assay has as its target T1, V30A.
T1 construct: also called hCD27 V30A
T1 receptor: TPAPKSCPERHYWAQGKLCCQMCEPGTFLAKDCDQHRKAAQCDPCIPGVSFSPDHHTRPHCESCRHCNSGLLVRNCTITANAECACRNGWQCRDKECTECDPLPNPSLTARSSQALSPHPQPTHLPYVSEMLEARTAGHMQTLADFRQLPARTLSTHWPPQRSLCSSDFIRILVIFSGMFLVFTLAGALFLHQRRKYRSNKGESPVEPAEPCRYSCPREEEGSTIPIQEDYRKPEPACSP

The next assay has as its target T2, P44A.
T2 construct: also called hCD27 P44A
T2 receptor: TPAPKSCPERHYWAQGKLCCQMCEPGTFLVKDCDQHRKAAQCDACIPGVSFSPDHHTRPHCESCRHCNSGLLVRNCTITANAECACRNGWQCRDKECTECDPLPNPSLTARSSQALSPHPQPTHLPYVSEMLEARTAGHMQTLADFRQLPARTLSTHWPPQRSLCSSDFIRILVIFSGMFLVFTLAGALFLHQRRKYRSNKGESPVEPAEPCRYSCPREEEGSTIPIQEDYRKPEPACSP

Another assay deals with T3, D32A.
T3 construct: also called hCD27 D32A
T3 receptor: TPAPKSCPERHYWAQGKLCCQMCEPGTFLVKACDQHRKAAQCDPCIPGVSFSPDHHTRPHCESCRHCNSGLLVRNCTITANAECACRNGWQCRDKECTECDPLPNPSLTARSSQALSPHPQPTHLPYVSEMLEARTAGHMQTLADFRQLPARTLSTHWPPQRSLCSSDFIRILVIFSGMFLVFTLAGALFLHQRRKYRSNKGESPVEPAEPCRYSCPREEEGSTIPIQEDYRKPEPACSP

In another assay the target is T4, R87A.
T4 construct: also called hCD27 R87A
T4 receptor: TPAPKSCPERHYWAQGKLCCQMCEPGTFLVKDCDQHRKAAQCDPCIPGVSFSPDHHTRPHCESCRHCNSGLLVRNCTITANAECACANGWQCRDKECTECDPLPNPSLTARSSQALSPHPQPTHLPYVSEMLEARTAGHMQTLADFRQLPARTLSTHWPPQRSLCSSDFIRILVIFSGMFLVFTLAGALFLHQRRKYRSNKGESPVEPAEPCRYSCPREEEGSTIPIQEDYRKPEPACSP

A further assay deals with T5, G16A.
T5 construct: also called hCD27 G16A
T5 receptor: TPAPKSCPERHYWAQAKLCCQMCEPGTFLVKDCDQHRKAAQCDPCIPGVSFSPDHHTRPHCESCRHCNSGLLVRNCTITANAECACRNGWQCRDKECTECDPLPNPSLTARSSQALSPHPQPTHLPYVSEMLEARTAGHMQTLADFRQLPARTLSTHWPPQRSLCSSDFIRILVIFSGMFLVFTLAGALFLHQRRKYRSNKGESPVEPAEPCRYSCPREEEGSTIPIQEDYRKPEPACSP

The next assay concerns the target T6, R37A.
T6 construct: also called hCD27 R37A
T6 receptor: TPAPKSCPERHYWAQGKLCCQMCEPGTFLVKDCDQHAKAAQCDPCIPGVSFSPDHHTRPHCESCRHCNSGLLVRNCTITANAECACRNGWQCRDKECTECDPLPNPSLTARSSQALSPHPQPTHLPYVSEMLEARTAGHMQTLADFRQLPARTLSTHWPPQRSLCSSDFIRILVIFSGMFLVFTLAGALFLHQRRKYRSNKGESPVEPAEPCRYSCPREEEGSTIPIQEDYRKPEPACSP

The target in another assay is T7, S63A.
T7 construct: also called hCD27 S63A
T7 receptor: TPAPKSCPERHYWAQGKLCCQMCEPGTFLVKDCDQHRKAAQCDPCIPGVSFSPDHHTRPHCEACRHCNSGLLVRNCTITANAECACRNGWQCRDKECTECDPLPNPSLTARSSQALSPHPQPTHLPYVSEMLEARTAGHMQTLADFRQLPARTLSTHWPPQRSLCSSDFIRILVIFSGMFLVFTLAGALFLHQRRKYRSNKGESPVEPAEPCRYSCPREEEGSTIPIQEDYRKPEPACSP

The next assay has as its target T8, W90A.
T8 construct: also called hCD27 W90A
T8 receptor: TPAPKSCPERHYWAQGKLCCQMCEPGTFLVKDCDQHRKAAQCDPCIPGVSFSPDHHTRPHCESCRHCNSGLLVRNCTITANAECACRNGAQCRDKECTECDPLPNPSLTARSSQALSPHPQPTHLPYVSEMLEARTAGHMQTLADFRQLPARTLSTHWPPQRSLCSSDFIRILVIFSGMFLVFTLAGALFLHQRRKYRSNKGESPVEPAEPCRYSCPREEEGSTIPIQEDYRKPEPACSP

The next assay deals with T9, K38A.
T9 construct: also called hCD27 K38A
T9 receptor: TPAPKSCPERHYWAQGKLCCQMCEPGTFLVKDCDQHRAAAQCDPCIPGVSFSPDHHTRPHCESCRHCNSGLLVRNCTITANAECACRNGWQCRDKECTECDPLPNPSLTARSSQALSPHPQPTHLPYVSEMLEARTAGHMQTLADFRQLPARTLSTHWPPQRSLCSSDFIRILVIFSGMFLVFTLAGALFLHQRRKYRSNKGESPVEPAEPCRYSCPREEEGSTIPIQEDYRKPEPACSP

The target of a further assay is T10, D43A.
T10 construct: also called hCD27 D43A
T10 receptor: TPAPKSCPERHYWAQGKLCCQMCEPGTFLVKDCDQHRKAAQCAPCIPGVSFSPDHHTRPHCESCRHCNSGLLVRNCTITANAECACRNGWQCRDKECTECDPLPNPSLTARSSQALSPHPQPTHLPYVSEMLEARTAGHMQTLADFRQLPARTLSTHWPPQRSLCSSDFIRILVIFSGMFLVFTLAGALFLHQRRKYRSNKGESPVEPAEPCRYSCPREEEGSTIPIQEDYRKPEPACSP

As for 1A4 (mouse IgG1) (antibody), the % of WT hCD27 binding (geo mean FITC) with V30A amounted to 161%; in the assay with P44A, 146%; with D32A, 43.7%; with R87A, 143%; with G16A it was 90.8%; with R37A it was 115%. Moreover, the % of WT hCD27 binding (geo mean FITC) with S63A was 158%; with W90A, 123%; with K38A it was 104%; in the assay with D43A, 195%.

Consider 9F4 (mouse IgG2a) (antibody), for which the % of WT hCD27 binding (geo mean FITC) came to 166% with V30A; 159% with P44A; 118% with D32A; 153% with R87A; 94.7% in the assay with G16A; 35% in the assay with R37A. Besides, the % of WT hCD27 binding (geo mean FITC) with S63A came out at 153%; with W90A it was 130%; with K38A, 44.7%; with D43A, 201%.

B1: Antibody hCD27.131A (mouse parental 131A) (antibody, V domains shown)
VH: QIQLVQSGPELKKPGETVKISCKASGYTFTNYGMNWVKQAPGKGLKWMGWINTNTGEPTYAEEFKGRFAFSLETSATTAYLQINNLKNEDTATYFCAREGDAMDYWGQGTSVTVSS
VL: QIVLTQSPAIMSASPGEKVTMTCSASSSVSYMHWYQQKSGTSPKRWIYDTSKLASGVPARFSGSGSGTSYSLTISSMEAEDAATYYCQQWNSYPFTFGSGTKLEIK
notes: mouse IgG1; also called mouse hCD27.131A
In the case of B1, the “% of WT hCD27 binding (geo mean FITC)” value was 170% in the assay with V30A; 158% in the assay with P44A; 113% in the assay with D32A; 153% with R87A; 94.8% with G16A; 50.3% with R37A. Moreover, the “% of WT hCD27 binding (geo mean FITC)” value was 162% with S63A, 126% in the assay with W90A, 48.2% with K38A and 194% with D43A.
